The record followed here is PMC12514839 (Protein science : a publication of the Protein Society, 2025).

The target of the test is CU228, putative PAS-HTH transcription factor from Candidatus Solibacter usitatus (Candidatus Solibacter usitatus). As to the kind of experiment: SEC-MALS. (In general: SEC sorts molecules by how far they enter the pores of the column.)

As usually defined, the stoichiometry N is a count of units in the complex or per binding partner. Take “CU228, putative PAS-HTH transcription factor from Candidatus Solibacter usitatus (natural protein)”: the stoichiometry N turned out to be 2.
